From patent US20240084027A1 (BEIJING MABWORKS, published 2024)
Read-outs that look alike come from different tables or passages of the source.

T1: monkey CD40 on HEK293A/monkey CD40 cells (monkey, UniProt P25942 21-277 (human entry))
T1 chain: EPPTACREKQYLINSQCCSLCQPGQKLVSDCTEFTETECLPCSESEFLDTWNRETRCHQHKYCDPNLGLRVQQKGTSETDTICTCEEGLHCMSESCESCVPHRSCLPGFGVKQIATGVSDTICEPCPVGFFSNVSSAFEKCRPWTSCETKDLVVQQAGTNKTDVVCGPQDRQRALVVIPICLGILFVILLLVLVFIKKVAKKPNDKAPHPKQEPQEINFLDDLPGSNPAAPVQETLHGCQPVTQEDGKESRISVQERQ

T2: mouse CD40 on HEK293A cells (mouse, UniProt P27512 20-289)
T2 sequence: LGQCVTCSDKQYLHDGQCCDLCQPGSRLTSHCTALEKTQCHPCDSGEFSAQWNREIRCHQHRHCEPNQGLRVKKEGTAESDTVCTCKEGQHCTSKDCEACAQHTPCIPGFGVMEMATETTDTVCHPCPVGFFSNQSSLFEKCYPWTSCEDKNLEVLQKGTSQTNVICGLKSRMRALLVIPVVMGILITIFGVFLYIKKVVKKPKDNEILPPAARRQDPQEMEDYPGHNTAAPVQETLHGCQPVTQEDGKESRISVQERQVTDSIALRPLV


Columns and labels:
[1] = biological target: T3, human CD40 on HEK293A/human CD40 cells (human, UniProt P25942 21-277); experiment: cell-based or functional assay
human PD-L1-his protein = biological target: T4, human PD-L1-his protein (human, UniProt Q9NZQ7 19-238); experiment: SPR (BIAcore 8K), human PD-L1-his coupled to CM5 chip, antibody injected
T4 construct: extracellular domain; also called human PD-L1 (ECD)-his; human PD-L1 protein; not shown: his tag
Excerpt: (§1) Using BIAcore™ 8K instrument (GE Life Sciences, US), the binding affinity of the bi- or multi-specific antibodies to human CD40 and PD-L1 was quantitatively measured. Briefly, 100-200 response units (RU) of human CD40-his protein (Cat #:10774-1108H, Sino Biological, CN) or human PD-L1-his protein (Cat #:10084-H08H, Sino Biological, CN) were coupled to CM5 biosensor chips (Cat #:BR-1005-30, GE Life Sciences. USA). The un-reacted groups were then blocked with 1 M ethanolamine. Serially diluted antibodies at concentrations ranging from 0.3 μM to 10 μM were injected into the SPR running buffer (HBS-EP buffer, pH7.4, Cat #:BR-1006-69, GE Life Sciences, USA) at 30 μL/min. The binding affinity was calculated with the RUs of blank controls subtracted, and the association rate (kₐ) and dissociation rate (kd) were determined using the one-to-one Langmuir binding model (BIA Evaluation Software, GE Life Sciences, USA). The equilibrium dissociation constant KD was calculated as the kd/kₐ ratio.

[2] = biological target: monkey PD-L1 on HEK293A/monkey PD-L1 cells (monkey, UniProt Q9NZQ7 19-290 (human entry)); experiment: FACS on HEK293A/monkey PD-L1 cells
Description: (§2) The bispecific antibodies as prepared above were tested for their binding capability to cell surface human, monkey and mouse CD40 proteins by FACS, using the HEK293A cells prepared in Example 1 that stably expressed human, monkey or mouse CD40. Briefly, a 96-well plate was seeded with 10⁵ HEK293A cells in 50 μl PBS, and then added with 100 μl serially diluted anti-CD40 antibody 714VH2VL2 and the bispecific antibodies of the disclosure (starting concentration at 40 μg/ml). After incubation at 4° C. for 1 h, the plate was washed by PBST for 3 times. The plate was added with 1:500 diluted APC-goat anti-mouse IgG (Cat #:405308, BioLegen, USA), incubated at 4° for 1 h, washed with PBS for 3 times, and subjected to fluorescence measurement in a FACS machine (BD).
(§3) Following the protocol of Example 4, the bispecific antibodies were tested for their binding capability to cell surface human, or monkey PD-L1 proteins by FACS, using the HEK293A cells prepared in Example 1 that stably expressed human or monkey […].

[3] = biological target: T5, human PD-L1 on HEK293A/human PD-L1 cells (human, UniProt Q9NZQ7 19-290); experiment: FACS blocking assay on HEK293A/human PD-L1 cells; blocked ligand PD-1-Fc
Description: (§4) The bispecific antibodies were tested for their blocking activity on PD-1-PD-L1 binding by FACS using the HEK293A cells stably expressing human PD-L1 molecules as prepared in Example 1. Briefly, a 96-well plate was seeded with 10⁵ HEK293A/human PD-L1 cells in 100 μl cell culture medium, and then added with 50 μl serially diluted anti-PD-L1 antibody 56E5VH5VL4 or MBS307-3 molecules. After incubation at 4° C. for 1 h. the plate was washed with PBST for 3 times, added with 100 μl 200 μg/ml PD-1-Fc fusion proteins (Cat #:10377-10211, Sino Biological, CN), incubated at 4° C. for 1 h, washed with PBST for 3 times, and added with 1:500 diluted PE-goat anti-human IgG (Cat #:PAI-86078, Thermofisher, USA). After incubation at 4° C. for 1 h, the plate was washed with PBST for 3 times and measured for fluorescence using a FACS machine (BD).
(§5) Following the protocol of Example 7, the bi- or multi-specific antibodies were tested for their capability to block PD-1-PD-L1 binding by FACS, using the HEK293A cells prepared in Example 1 that stably expressed human PD-L1 molecules.

[4] = biological target: T3, human CD40 on HEK293A/human CD40 cells; experiment: FACS on HEK293A/human CD40 cells
Description: as §2
(§6) Following the protocols in Example 4 and Example 5, the bi- or multi-specific antibodies of the disclosure were tested for their binding capability to human PD-L1 and human CD40 proteins by FACS using the HEK293A cells prepared in Example 1 that stably expressed human PD-L1 or human CD40.

[5] = biological target: T1, monkey CD40 on HEK293A/monkey CD40 cells; experiment: FACS on HEK293A/monkey CD40 cells
Description: as §2

[6] = biological target: T5, human PD-L1 on HEK293A/human PD-L1 cells; experiment: FACS on HEK293A/human PD-L1 cells
Description: as §2, §6

human CD40-his protein = biological target: T6, human CD40-his protein (human, UniProt P25942 21-193); experiment: SPR (BIAcore 8K), human CD40-his coupled to CM5 chip, antibody injected
T6 construct: Bought protein; also called human CD40 protein; CD40 molecules; not shown: his tag
Excerpt: as §1

[7] = biological target: T2, mouse CD40 on HEK293A cells; experiment: FACS on HEK293A cells expressing mouse CD40
Description: as §2

[8] = biological target: T5, human PD-L1 on HEK293A/human PD-L1 cells; experiment: FACS on HEK293A/human PD-L1 cells; remark: listed apart in the source
Description: as §2, §3

[9] = biological target: T5, human PD-L1 on HEK293A/human PD-L1 cells; experiment: FACS blocking assay on HEK293A/human PD-L1 cells; blocked ligand PD-1-Fc; remark: listed apart in the source
Description: as §4

[10] = biological target: T5, human PD-L1 on HEK293A/human PD-L1 cells; experiment: FACS on HEK293A/human PD-L1 cells; remark: listed apart in the source
Description: as §2, §6

[11] = biological target: T3, human CD40 on HEK293A/human CD40 cells; experiment: FACS on HEK293A/human CD40 cells; remark: listed apart in the source
Description: as §2

[12] = biological target: T3, human CD40 on HEK293A/human CD40 cells; experiment: cell-based or functional assay; remark: listed apart in the source
[13] = biological target: T5, human PD-L1 on HEK293A/human PD-L1 cells; experiment: FACS blocking assay on HEK293A/human PD-L1 cells; blocked ligand PD-1-Fc; remark: listed apart in the source
Description: as §4, §5

T5 sequence (Q9NZQ7 19-290 limits assumed): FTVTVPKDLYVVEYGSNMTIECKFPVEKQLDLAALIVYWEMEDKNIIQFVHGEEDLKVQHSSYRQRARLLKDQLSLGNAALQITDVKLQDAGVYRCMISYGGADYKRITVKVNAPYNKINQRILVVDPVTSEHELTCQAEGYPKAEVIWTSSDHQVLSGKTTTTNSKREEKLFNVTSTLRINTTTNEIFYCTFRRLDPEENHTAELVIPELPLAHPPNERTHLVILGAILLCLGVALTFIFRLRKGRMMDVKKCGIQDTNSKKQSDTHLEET
T4 sequence (Q9NZQ7 19-238): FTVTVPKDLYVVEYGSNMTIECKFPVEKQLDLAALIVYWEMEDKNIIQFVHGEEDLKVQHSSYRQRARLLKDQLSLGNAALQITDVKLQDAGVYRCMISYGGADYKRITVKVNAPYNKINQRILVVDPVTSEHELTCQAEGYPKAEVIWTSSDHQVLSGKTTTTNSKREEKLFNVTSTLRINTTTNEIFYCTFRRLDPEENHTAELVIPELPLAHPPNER
Sequence of monkey PD-L1 on HEK293A/monkey PD-L1 cells (Q9NZQ7 other isoform, or with tags, fused parts or gaps limits assumed): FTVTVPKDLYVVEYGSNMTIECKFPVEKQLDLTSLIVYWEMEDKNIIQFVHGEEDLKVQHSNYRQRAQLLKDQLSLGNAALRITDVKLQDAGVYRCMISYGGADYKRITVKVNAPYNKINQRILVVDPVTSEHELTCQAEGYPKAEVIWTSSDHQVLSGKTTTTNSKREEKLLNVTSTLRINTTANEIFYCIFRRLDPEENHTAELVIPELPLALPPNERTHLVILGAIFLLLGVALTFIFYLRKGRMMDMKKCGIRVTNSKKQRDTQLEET

Row | Binder | EC50 (read off the curve); HEK-Blue/CD40 reporter, OD630, plate coated with human PD-L1-his [1] [µg/mL] | Kd (human PD-L1-his protein) [nM] | EC50 (read off the curve) [2] [µg/mL] | IC50 (read off the curve) [3] [µg/mL] | EC50 (read off the curve) [4] [µg/mL] | EC50 (read off the curve) [5] [µg/mL] | EC50 (read off the curve) [6] [µg/mL] | Kd (human CD40-his protein) [nM] | binding result [7] | EC50 (read off the curve) [8] [µg/mL] | IC50 (read off the curve) [9] [µg/mL] | EC50 (read off the curve) [10] [µg/mL] | EC50 (read off the curve) [11] [µg/mL] | EC50 (read off the curve); HEK-Blue/CD40 reporter, OD630, plate coated with human PD-L1-his [12] [µg/mL] | IC50 (read off the curve) [13] [µg/mL]
1 | MBS307-3 (bispecific antibody, human IgG1, kappa, L234A L235A, Symmetric: full-length anti-CD40 antibody with an anti-PD-L1 scFv (56E5VH5VL4) at the C terminus of each heavy chain) heavy: QVQLQESGPGLVKPSDTLSLTCAVSGYSITTNYYWNWIRQPPGKGLEWMGYIKYDGSNNYNPSLKNRITISVDTSKNQFSLKLSSVTAVDTAVYYCARLDYWGQGTLVTVSSASTKGPSVFPLAPSSKSTSGGTAALGCLVKDYFPEPVTVSWNSGALTSGVHTFPAVLQSSGLYSLSSVVTVPSSSLGTQTYICNVNHKPSNTKVDKKVEPKSCDKTHTCPPCPAPEAAGGPSVFLFPPKPKDTLMISRTPEVTCVVVDVSHEDPEVKFNWYVDGVEVHNAKTKPREEQYNSTYRVVSVLTVLHQDWLNGKEYKCKVSNKALGAPIEKTISKAKGQPREPQVYTLPPSREEMTKNQVSLTCLVKGFYPSDIAVEWESNGQPENNYKTTPPVLDSDGSFFLYSKLTVDKSRWQQGNVFSCSVMHEALHNHYTQKSLSLSPGSGGGGSGGGGSQVQLQESGPGLVKPSQTLSLTCTVSGGSITSDYWNWIRQHPGNKLEYMGYISYTGSTYYNPSLKSRISITRDTSKNQFSLKLSSVTTADTAVYYCARYRDWDVRAMDYWGQGTTVTVSSGGGGSGGGGSGGGGSGGGGSDIVMTQSPDSLAVSLGEKVTMNCKSSQSLLISGNQKNFLTWYQQKPGQPPKLLIYWASTRESGVPDRFSGSGSGTDFTLTISSLQAEDEAVYYCQNDFGFPFTFGQGTKLTAK light: DVVLTQSPLSLPVTLGQPASISCRSSQSLENSNGNTFLNWFQQRPGQSPRLLIYKVSNRFSGVPDRFSGSGSGTDFTLKISRVEAEDVGVYYCLQVTHVPFTFGQGTKLEIKRTVAAPSVFIFPPSDEQLKSGTASVVCLLNNFYPREAKVQWKVDNALQSGNSQESVTEQDSKDSTYSLSSTLTLSKADYEKHKVYACEVTHQGLSSPVTKSFNRGEC | ~0.1 | 0.321 | ~0.09 | ~0.08 | ~0.1 | ~0.1 | ~0.2 | 1.42 | no binding (tested: starting concentration at 40 µg/ml) | ~0.1 | ~0.1 | ~0.1 | ~0.1 |  | 
2 | MBS307-11 (bispecific antibody, human IgG1, kappa, L234A L235A, Asymmetric: knob chain with the anti-PD-L1 nanobody, hole chain with the 3C2VH6VL5 scFv; also called MBS307-11-1 + MBS307-11-2) heavy 1: QVQLQESGPGLVKPSDTLSLTCAVSGYSITTNYYWNWIRQPPGKGLEWMGYIKYDGSNNYNPSLKNRITISVDTSKNQFSLKLSSVTAVDTAVYYCARLDYWGQGTLVTVSSASTKGPSVFPLAPSSKSTSGGTAALGCLVKDYFPEPVTVSWNSGALTSGVHTFPAVLQSSGLYSLSSVVTVPSSSLGTQTYICNVNHKPSNTKVDKKVEPKSCDKTHTCPPCPAPEAAGGPSVFLFPPKPKDTLMISRTPEVTCVVVDVSHEDPEVKFNWYVDGVEVHNAKTKPREEQYNSTYRVVSVLTVLHQDWLNGKEYKCKVSNKALPAPIEKTISKAKGQPREPQVYTLPPSREEMTKNQVSLWCLVKGFYPSDIAVEWESNGQPENNYKTTPPVLDSDGSFFLYSKLTVDKSRWQQGNVFSCSVMHEALHNHYTQKSLSLSPGGGGGQVQLLESGGGLVQPGGSLRLSCAASGFAFSDYAMTWVRQAPGKGLEWVSTINSGGQSSSYLDSVKGRFTSSRDNSKNTLYLQMNSLRAEDTAVYYCAKGVYMPWKAPKGQGTLVTVSS heavy 2: QVQLQESGPGLVKPSDTLSLTCAVSGYSITTNYYWNWIRQPPGKGLEWMGYIKYDGSNNYNPSLKNRITISVDTSKNQFSLKLSSVTAVDTAVYYCARLDYWGQGTLVTVSSASTKGPSVFPLAPSSKSTSGGTAALGCLVKDYFPEPVTVSWNSGALTSGVHTFPAVLQSSGLYSLSSVVTVPSSSLGTQTYICNVNHKPSNTKVDKKVEPKSCDKTHTCPPCPAPEAAGGPSVFLFPPKPKDTLMISRTPEVTCVVVDVSHEDPEVKFNWYVDGVEVHNAKTKPREEQYNSTYRVVSVLTVLHQDWLNGKEYKCKVSNKALPAPIEKTISKAKGQPREPQVYTLPPSREEMTKNQVSLSCAVKGFYPSDIAVEWESNGQPENNYKTTPPVLDSDGSFFLVSKLTVDKSRWQQGNVFSCSVMHEALHNHYTQKSLSLSPGGGGGQVQLVQSGAEVKKPGASVKVSCKASGYTFTDYHVNWVRQAPGQGLEWIGWIFPGSGRTFYTDKFKGRVTMTVDTSTSTVYMELSSLRSEDTAVYYCATDYGTSGYGLVYWGQGTTVTVSSGGGGSGGGGSGGGGSGGGGSDIQMTQSPSSLSASVGDRVTITCKASDRINNWLAWYQQKPGKAPKLLISGATSLETGVPSRFSGSGSGTDFTLTISSLQPEDEATYYCQQYWNIPFTFGQGTKLTAK light: DVVLTQSPLSLPVTLGQPASISCRSSQSLENSNGNTFLNWFQQRPGQSPRLLIYKVSNRFSGVPDRFSGSGSGTDFTLKISRVEAEDVGVYYCLQVTHVPFTFGQGTKLEIKRTVAAPSVFIFPPSDEQLKSGTASVVCLLNNFYPREAKVQWKVDNALQSGNSQESVTEQDSKDSTYSLSSTLTLSKADYEKHKVYACEVTHQGLSSPVTKSFNRGEC |  | 0.069 |  |  |  |  |  | 4.37 |  |  |  |  |  | ~0.01 | ~0.01
